Data on 1 molecule can be found in patent US20190016826A1 (Genentech, published 2019).

Holding throughout (experiment): ELISA on plate-coated HuHtrA1_PD mutants (Example 7); column head on the sheet reads YW505.94 Fab, legend paragraph 70 says IgG94
On the technique in general: In an ELISA, binding on a coated surface is turned into a signal by an enzyme label.

One assay deals with T1, E239A.
T1 construct: also called HuHtrA1_PD(E239A)
As for the experimental part: (§1) The mutants were expressed in E. coli and the trimers purified by size exclusion chromatography as described in Example 2. Binding was determined using an ELISA assay, which was conducted using a MAXISORP™ microtiter plate coated with HuHtrA1_PD mutants at 2 μg/ml in PBS for 1 h, followed by blocking with PBST buffer (0.5% BSA and 0.05% Tween 20 in PBS) for 1 h at room temperature. […] The plates were washed with PBT buffer (0.05% Tween 20 in PBS), and HRP-conjugated goat anti-human IgG (H+L) (Invitrogen) was added (1:5000 in PBST buffer) and incubated for 1 h. The plates were washed with PBT buffer and developed by adding tetramethylbenzidine substrate (Kirkegaard and Perry Laboratories, Gaithersburg, Md.). The absorbance at 450 nm was plotted as a function of antibody concentration in solution to determine EC₅₀ values.
(§2) In trypsin-like serine proteases these loops are known to be part of the specificity determining region that interacts with substrates.

A further assay has as its target T2, K241A.
T2 construct: also called HuHtrA1_PD(K241A)
The protocol:
as §1, §2

The target in another assay is T3, HuHtrA1_PD(T223A) (human, UniProt F1N152 168-386 (bovine entry)).
T3 construct: Alanine mutant of HuHtrA1_PD; also called HuHtrA1 mutant T223A; not shown: thrombin cleavage site
T3 chain: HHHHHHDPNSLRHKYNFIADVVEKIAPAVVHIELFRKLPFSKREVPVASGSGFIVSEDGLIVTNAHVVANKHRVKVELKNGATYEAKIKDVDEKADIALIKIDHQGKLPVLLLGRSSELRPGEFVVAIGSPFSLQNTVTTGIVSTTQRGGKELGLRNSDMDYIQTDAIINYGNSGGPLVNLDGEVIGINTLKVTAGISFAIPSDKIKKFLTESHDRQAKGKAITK
As for the experimental part: as §1, §2

The target in the next assay is T4, HuHtrA1_PD(E247A) (human, UniProt F1N152 168-386 (bovine entry)).
T4 construct: Alanine mutant of HuHtrA1_PD; also called HuHtrA1 mutant E247A; not shown: thrombin cleavage site
T4 chain: T3 chain with A69T, E93A
As for the experimental part: as §1, §2

For a further assay, the target named is T5, K191A.
T5 construct: also called HuHtrA1_PD(K191A)
As for the experimental part: as §1, §2

Another assay has as its target T6, HuHtrA1_PD(K225A) (human, UniProt F1N152 168-386 (bovine entry)).
T6 construct: Alanine mutant of HuHtrA1_PD; also called HuHtrA1 mutant K225A; not shown: thrombin cleavage site
T6 chain: T3 chain with A69T, K71A
The protocol:
as §1, §2

The target of another assay is T7, HuHtrA1_PD(V201A) (human, UniProt F1N152 168-386 (bovine entry)).
T7 construct: Alanine mutant of HuHtrA1_PD; also called HuHtrA1 mutant V201A; not shown: thrombin cleavage site
T7 chain: T3 chain with V47A, A69T
As for the experimental part: as §1, §2

A further assay deals with T8, N224A.
T8 construct: also called HuHtrA1_PD(N224A)
As for the experimental part: as §1, §2

The target of the next assay is T9, HuHtrA1_PD(H220A) (human, UniProt F1N152 168-386 (bovine entry)).
T9 construct: Alanine mutant of HuHtrA1_PD; also called HuHtrA1 mutant H220A; not shown: thrombin cleavage site
T9 chain: T3 chain with H66A, A69T
As for the experimental part: as §1, §2

Residue numbers refer to the chain shown, from its start.

B1: Fab94 (anti-HtrA1 antibody YW505.94, Fab format) (Fab, V domains shown)
VH: EVQLVESGGGLVQPGGSLRLSCAASGFNISGYYIHWVRQAPGKGLEWVGWIDPYGGDTNYADSVKGRFTISADTSKNTAYLQMNSLRAEDTAVYYCARGTFLTSWGHYFDYWGQGT
VL: DIQMTQSPSSLSASVGDRVTITCRASQDVSTAVAWYQQKPGKAPKLLIYSASFLYSGVPSRFSGSGSGTDFTLTISSLQPEDFATYYCQQSYTTPPTFGQGTKVEIKR
B1: the EC50 (usually the concentration at which the effect is half-maximal) with E239A came to 5.4 nM; with K241A it was 23 nM; with HuHtrA1_PD(T223A), 62.9 nM; with HuHtrA1_PD(E247A), 41.7 nM; in the assay with K191A, 14 nM; with HuHtrA1_PD(K225A) it was 52.2 nM. For the same molecule, the EC50 is 112 nM with HuHtrA1_PD(V201A), 135 nM with N224A and 32 nM with HuHtrA1_PD(H220A). The “Relative to WT EC50 Fold Decrease” value with E239A worked out at 0.9 fold; with K241A it was 4.1 fold; with HuHtrA1_PD(T223A), 11.2 fold; with HuHtrA1_PD(E247A) it was 7.4 fold; with K191A, 2.5 fold; with HuHtrA1_PD(K225A), 9.3 fold. In addition, the entries for the “Relative to WT EC50 Fold Decrease” value with HuHtrA1_PD(V201A), in the assay with N224A and in the assay with HuHtrA1_PD(H220A) were 20 fold, 24 fold and 5.7 fold, respectively.
